Assay results as given in patent publication US20140087995A1 (published 2014).
Numbered stars: 1 amine (or outer) side, 2 acyl side, 3 side chain; on linkers, the order of the positions; unused ones are H or OH. Bridge positions count the residues as written; N and C are the ends. Side chains are listed from the residue outwards. Ends that are not written are not given here. * marks the point of attachment. C20 diacid = O=C(O)CCCCCCCCCCCCCCCCCCC(=O)*; γGlu = O=C(O)[C@H](CCC(=O)[*:2])N[*:1]

T1: human amylin receptor (amylin 3(a) receptor: human calcitonin receptor plus RAMP-3) (human, UniProt P30988 25-474; O60896 24-148, limits assumed)
T1 construct: whole, on cells; Whole cells in the luciferase assay (Assay II a); also called hAmylin-R; hAmylinR
T1 sequence (looked up) 1: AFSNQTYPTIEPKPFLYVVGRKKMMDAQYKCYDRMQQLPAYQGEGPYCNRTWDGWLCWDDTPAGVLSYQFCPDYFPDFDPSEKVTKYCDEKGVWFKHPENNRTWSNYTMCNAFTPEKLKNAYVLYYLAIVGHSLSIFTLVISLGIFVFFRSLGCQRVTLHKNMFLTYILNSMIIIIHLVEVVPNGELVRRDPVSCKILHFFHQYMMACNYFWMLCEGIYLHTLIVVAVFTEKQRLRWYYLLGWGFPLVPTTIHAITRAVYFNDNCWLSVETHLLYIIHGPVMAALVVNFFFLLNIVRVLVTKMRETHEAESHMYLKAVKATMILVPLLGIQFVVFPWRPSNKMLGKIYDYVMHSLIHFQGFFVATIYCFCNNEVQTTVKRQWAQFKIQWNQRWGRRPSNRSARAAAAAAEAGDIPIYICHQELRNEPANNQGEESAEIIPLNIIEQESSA
T1 sequence (looked up) 2: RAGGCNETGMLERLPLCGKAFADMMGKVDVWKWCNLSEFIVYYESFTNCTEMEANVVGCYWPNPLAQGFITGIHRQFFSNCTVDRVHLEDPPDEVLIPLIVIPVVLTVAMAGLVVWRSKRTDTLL

T2: human calcitonin receptor (human, UniProt P30988 25-474)
T2 sequence (looked up): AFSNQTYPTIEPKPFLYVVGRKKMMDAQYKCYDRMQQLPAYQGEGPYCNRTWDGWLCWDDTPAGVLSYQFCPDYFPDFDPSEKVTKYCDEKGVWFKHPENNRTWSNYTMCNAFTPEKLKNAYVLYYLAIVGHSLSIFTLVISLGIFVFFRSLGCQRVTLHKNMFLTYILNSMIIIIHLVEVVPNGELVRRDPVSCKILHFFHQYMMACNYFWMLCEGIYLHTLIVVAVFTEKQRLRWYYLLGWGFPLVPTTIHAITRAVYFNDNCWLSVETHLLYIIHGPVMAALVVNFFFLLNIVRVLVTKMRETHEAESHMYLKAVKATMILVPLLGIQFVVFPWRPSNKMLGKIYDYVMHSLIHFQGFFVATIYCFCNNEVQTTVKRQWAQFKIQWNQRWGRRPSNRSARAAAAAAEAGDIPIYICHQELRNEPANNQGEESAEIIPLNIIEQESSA

T3: human calcitonin receptor (human, UniProt P30988 25-474)
T3 sequence (looked up): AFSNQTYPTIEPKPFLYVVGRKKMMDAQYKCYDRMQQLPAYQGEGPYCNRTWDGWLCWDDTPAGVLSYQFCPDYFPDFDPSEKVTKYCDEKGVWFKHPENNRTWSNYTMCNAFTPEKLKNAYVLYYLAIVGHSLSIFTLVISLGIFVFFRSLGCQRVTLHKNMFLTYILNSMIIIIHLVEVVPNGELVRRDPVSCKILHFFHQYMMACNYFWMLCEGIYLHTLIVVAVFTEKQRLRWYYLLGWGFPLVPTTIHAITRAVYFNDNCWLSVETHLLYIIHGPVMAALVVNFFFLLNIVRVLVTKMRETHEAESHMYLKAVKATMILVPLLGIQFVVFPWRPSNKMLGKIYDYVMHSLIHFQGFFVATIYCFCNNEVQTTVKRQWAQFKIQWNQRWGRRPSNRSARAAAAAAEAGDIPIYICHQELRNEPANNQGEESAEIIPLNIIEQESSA

T4: human amylin receptor (amylin 3(a) receptor: human calcitonin receptor co-expressed with RAMP-3) (human, UniProt P30988 25-474; O60896 24-148)
T4 sequence (looked up) 1: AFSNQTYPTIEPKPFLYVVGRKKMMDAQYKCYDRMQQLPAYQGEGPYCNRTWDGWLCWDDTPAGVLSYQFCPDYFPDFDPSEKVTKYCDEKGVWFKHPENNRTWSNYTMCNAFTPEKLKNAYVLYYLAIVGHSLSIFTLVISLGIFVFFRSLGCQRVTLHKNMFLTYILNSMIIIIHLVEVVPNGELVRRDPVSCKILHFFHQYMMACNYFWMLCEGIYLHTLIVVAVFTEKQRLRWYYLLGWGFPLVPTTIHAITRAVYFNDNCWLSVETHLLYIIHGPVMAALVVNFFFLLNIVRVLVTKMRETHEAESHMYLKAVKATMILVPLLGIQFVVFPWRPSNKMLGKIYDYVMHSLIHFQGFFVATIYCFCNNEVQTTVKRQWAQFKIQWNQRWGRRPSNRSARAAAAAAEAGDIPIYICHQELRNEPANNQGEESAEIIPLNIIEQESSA
T4 sequence (looked up) 2: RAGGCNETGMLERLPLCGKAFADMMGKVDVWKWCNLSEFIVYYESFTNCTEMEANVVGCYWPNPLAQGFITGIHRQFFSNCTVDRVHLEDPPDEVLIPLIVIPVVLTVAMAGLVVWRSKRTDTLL


Key:
[1] = target: T1, human amylin receptor (amylin 3(a) …); assay: SPA competition binding, displacement of 125I-rat amylin from membranes of BHK cells with human calcitonin receptor + RAMP-3 (Assay V)
Method in brief: (§1)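 SPA beads with BHK Amylin 3(a)/CRE-luc cell membranes (35 ng/μL final) in 50 mM Hepes pH 7.4, 1 mM CaCl2, 5 mM MgCl₂, 0.1% OA, 0.02% Tween20.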

[2] = target: T1, human amylin receptor (amylin 3(a) …); assay: cell-based or functional assay
[3] = target: T2, human calcitonin receptor; assay: cell-based or functional assay
[4] = target: T3, human calcitonin receptor; assay: cell-based or functional assay; remark: listed apart in the source
[5] = target: T4, human amylin receptor (amylin 3(a) …); assay: cell-based or functional assay
[6] = target: T4, human amylin receptor (amylin 3(a) …); assay: SPA competition binding, membranes of Amylin 3(a)/CRE-luc BHK cells, displacement of 125I-rat amylin (Assay V)
Method in brief: as §1

IC50 [1]	Ratio hCT/hAmylin funct. [2]	hAmylin-R funct. EC50 [2]	hCTR funct. EC50 [3]	Ratio hCT/hAmylin funct. (hCTR EC50 against hAmylin-R EC50) [4]	hCTR funct. EC50 (pM), CRE-luciferase reporter in BHK calcitonin (a) receptor cells [4]	hAmylin-R funct. EC50 (pM), CRE-luciferase reporter in BHK amylin 3(a) receptor cells [5]	IC50 [6]	Binder
0.597 nM	8.9 ratio	386 pM	3.43 nM	–	–	–	–	{C20 diacid-γGlu-γGlu}-KCNTATCATQRLAEFLRHSSPNFGAIPSSTNVGSNTY-NH2 (disulfide 2-7; SMILES CC[C@H](C)[C@H](NC(=O)[C@H](C)NC(=O)CNC(=O)[C@H](Cc1ccccc1)NC(=O)[C@H](CC(N)=O)NC(=O)[C@@H]1CCCN1C(=O)[C@H](CO)NC(=O)[C@H](CO)NC(=O)[C@H](Cc1c[nH]cn1)NC(=O)[C@H](CCCNC(=N)N)NC(=O)[C@H](CC(C)C)NC(=O)[C@H](Cc1ccccc1)NC(=O)[C@H](CCC(=O)O)NC(=O)[C@H](C)NC(=O)[C@H](CC(C)C)NC(=O)[C@H](CCCNC(=N)N)NC(=O)[C@H](CCC(N)=O)NC(=O)[C@@H](NC(=O)[C@H](C)NC(=O)[C@@H]1CSSC[C@H](NC(=O)[C@H](CCCCN)NC(=O)CC[C@H](NC(=O)CC[C@H](NC(=O)CCCCCCCCCCCCCCCCCCC(=O)O)C(=O)O)C(=O)O)C(=O)N[C@@H](CC(N)=O)C(=O)N[C@@H]([C@@H](C)O)C(=O)N[C@@H](C)C(=O)N[C@@H]([C@@H](C)O)C(=O)N1)[C@@H](C)O)C(=O)N1CCC[C@H]1C(=O)N[C@@H](CO)C(=O)N[C@@H](CO)C(=O)N[C@H](C(=O)N[C@@H](CC(N)=O)C(=O)N[C@H](C(=O)NCC(=O)N[C@@H](CO)C(=O)N[C@@H](CC(N)=O)C(=O)N[C@H](C(=O)N[C@@H](Cc1ccc(O)cc1)C(N)=O)[C@@H](C)O)C(C)C)[C@@H](C)O, Synthetic acylated analogue of human amylin; also called compound 15)
–	–	–	–	0.8	102 pM	132 pM	0.533 nM	K([γGlu-γGlu-C20 diacid])CNTATCATQRLAEFLRHSSPNFGAIPSSTNVGPETP-NH2 (disulfide 2-7 (inferred), Synthetic acylated analogue of human amylin)
–	–	–	–	13.1	5580 pM	425 pM	0.992 nM	K([γGlu-C20 diacid])CNTATCATQRLAEFLRHSSPNFGAIPSSTNVGSHTY-NH2 (disulfide 2-7 (inferred), Synthetic acylated analogue of human amylin)
